In assay [1] the target is 48d.cl IC as analyte in SPR (Fab-Fab-crosslinked [change]) (HIV-1 strain BG505, UniProt Q2N0S6). Kind of assay: SPR. (SPR reads the build-up and loss of mass on a sensor chip optically.)
Assay [2] addresses 48d IC as analyte in SPR (non-crosslinked control) (HIV-1 strain BG505, UniProt Q2N0S6). Kind of assay: SPR.

For one molecule, Kd and koff results are on record in paper PMC12846365 (2026).

B1: 2mutVRC01 (antibody, V domains shown)
VH: QVQLVQSGGQMKKPGESMRISCRASGYEFIDCTLNWIRLAPGKRPEWMGWLKPRGGAVNYARPLQGRVTMTRDVYSDTAFLELRSLTVDDTAVYFCTRGKNCDYNWDFEHWGRGTPVIVSS
VL: EIVLTQSPGTLSLSPGETAIISCRTSQYGSAALAWYQQRPGQAPRLVIYSGSTRAAGIPDRFSGSRWGPDYNLTISNLESGDFGVYYCQQYEFFGQGTKVQVD
The Kd is the concentration at which binding is half-saturated. The low end stands for tighter binding, the high end for weaker binding. The koff is a measure of how fast the partners let go of each other. In assay [1], B1 yielded a Kd of 0.52 nM and an off-rate (koff) of 0.00012 s⁻¹. Further, in assay [2], the equilibrium dissociation constant (Kd) came out at 0.81 nM and the off-rate (koff) turned out to be 0.00031 s⁻¹.
